From publication PMC9328677 (2021) come the findings set out here.

B1: acidic domain of Homo sapiens APLF (APLF^AD, residues 450 to 511), wild type [Homo sapiens] / stoichiometric mixture of full-length Drosophila melanogaster H2A-H2B and H3-H4 (octamer-mix) [Drosophila melanogaster] (parent complex)
chain 1: DEDNDNVGQPNEYDLNDSFLDDEEEDYEPTDEDSDWEPGKEDEEKEDVEELLKEAKRFMKRK
chain 2: not shown
chain 3: not shown
chain 4: not shown
chain 5: not shown

In this experiment the parent is B1. The experiment can be described thus: ITC. (In general: ITC needs no label: the signal is the heat of the interaction.)
For chain 1 Y13A, chain 1 F19A, chain 1 Y27A, chain 1 W36A, the Kd worked out at 0.794 µM. chain 1 Y27A, chain 1 W36A: the Kd turned out to be 0.317 µM. Regarding chain 1 Y13A, chain 1 F19A, the Kd came to 0.671 µM.

The Kd is the constant that tells how readily two partners part at equilibrium.
